Measurements published in article PMC314469, “Protein Interaction Networks by Proteome Peptide Scanning” (PLoS Biology, 2004).

T1: Boi1 SH3 (BOI1_YEAST), P38041
T1 chain: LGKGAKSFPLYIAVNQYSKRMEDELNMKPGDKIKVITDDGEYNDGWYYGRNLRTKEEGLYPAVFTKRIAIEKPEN

T2: Myo5 SH3 (MYO5_YEAST), Q04439
T2 chain: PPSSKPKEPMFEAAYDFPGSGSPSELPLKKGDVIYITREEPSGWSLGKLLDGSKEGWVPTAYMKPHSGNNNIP

T3: Yfr024 SH3 (LSB3_YEAST), P43603
T3 chain: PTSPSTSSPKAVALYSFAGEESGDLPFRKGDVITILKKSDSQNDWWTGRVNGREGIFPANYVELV

T4: Boi2 SH3 (BOI2_YEAST), P39969
T4 chain: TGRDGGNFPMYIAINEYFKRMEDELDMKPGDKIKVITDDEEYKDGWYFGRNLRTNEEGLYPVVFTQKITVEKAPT

T5: Yhr016c SH3 (YSC84_YEAST), P32793
T5 chain: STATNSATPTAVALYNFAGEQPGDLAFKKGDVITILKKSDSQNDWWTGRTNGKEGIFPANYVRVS

T6: Rvs167 SH3 (RV167_YEAST), P39743
T6 chain: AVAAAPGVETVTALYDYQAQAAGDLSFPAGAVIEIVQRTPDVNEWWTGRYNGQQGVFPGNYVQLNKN


Target: T1, Boi1 SH3 (BOI1_YEAST), P38041
Test: SPOT array

Binder	normalised SPOT signal, Boehringer light units (BLU); mean over the file's lines of this peptide
HLLGKEGPSAPNPS [YNL287W 476-489]	89
HELVKSDPHFPYGT [YDL117W 838-851]	37.2
HKFVKSSPVVPFDD [YOR335C 27-40]	247
HFPSRSQPSDPKLQ [YKR028W 906-919]	91.5
HISDKMNPASPQYF [YDR266C 250-263]	113
HILEKYSPFDPSGR [YPL148C 31-44]	26.1
HNAAKPIPHVPQAS [YKR067W 8-21]	114
HEVPKRSPEKPSNP [YNL278W 806-819]	91.8

The remaining lines, values ahead:

normalised SPOT signal, Boehringer light units (BLU); mean over the file's lines of this peptide	Binder
283	HLVRKVAPTKPMYS [YHR070W 477-490]
69.4	IAEWKNDPNNPNFE [YMR277W 194-207]
54.9	HEREKALPPIPFTT [YLR425W 196-209]
1.1	HSTPKPLPPVPALS [YNL106C 1030-1043]
58.4	HTIPKSGPIVPYVL [YGR010W 26-39]
226	HRLFKSTPGLPKLW [YAL048C 356-369]
118	HFNTKKIPELPSQF [YML051W 376-389]
45.1	IAGQRTFPEDPNYP [YKR051W 375-388]

Target: T2, Myo5 SH3 (MYO5_YEAST), Q04439
Test: SPOT array

Binder	normalised SPOT signal, Boehringer light units (BLU); mean over the file's lines of this peptide
HLLGKEGPSAPNPS [YNL287W 476-489]	124
HELVKSDPHFPYGT [YDL117W 838-851]	229
HKFVKSSPVVPFDD [YOR335C 27-40]	151
HFPSRSQPSDPKLQ [YKR028W 906-919]	258
HISDKMNPASPQYF [YDR266C 250-263]	159
HILEKYSPFDPSGR [YPL148C 31-44]	166
HNAAKPIPHVPQAS [YKR067W 8-21]	62.3
HEVPKRSPEKPSNP [YNL278W 806-819]	172

Second part, the binder after the results:

normalised SPOT signal, Boehringer light units (BLU); mean over the file's lines of this peptide	Binder
478	HLVRKVAPTKPMYS [YHR070W 477-490]
91.1	IAEWKNDPNNPNFE [YMR277W 194-207]
215	HEREKALPPIPFTT [YLR425W 196-209]
144	HSTPKPLPPVPALS [YNL106C 1030-1043]
164	HTIPKSGPIVPYVL [YGR010W 26-39]
266	HRLFKSTPGLPKLW [YAL048C 356-369]
467	HFNTKKIPELPSQF [YML051W 376-389]
172	IAGQRTFPEDPNYP [YKR051W 375-388]

Target: T3, Yfr024 SH3 (LSB3_YEAST), P43603
Test: SPOT array

Binder	normalised SPOT signal, Boehringer light units (BLU); mean over the file's lines of this peptide
HLLGKEGPSAPNPS [YNL287W 476-489]	14.5
HELVKSDPHFPYGT [YDL117W 838-851]	2.5
HKFVKSSPVVPFDD [YOR335C 27-40]	122
HFPSRSQPSDPKLQ [YKR028W 906-919]	294
HISDKMNPASPQYF [YDR266C 250-263]	161
HILEKYSPFDPSGR [YPL148C 31-44]	82.7
HNAAKPIPHVPQAS [YKR067W 8-21]	8.5
HEVPKRSPEKPSNP [YNL278W 806-819]	148

The next lines start with the values.

normalised SPOT signal, Boehringer light units (BLU); mean over the file's lines of this peptide	Binder
947	HLVRKVAPTKPMYS [YHR070W 477-490]
0	IAEWKNDPNNPNFE [YMR277W 194-207]
158	HEREKALPPIPFTT [YLR425W 196-209]
470	HSTPKPLPPVPALS [YNL106C 1030-1043]
47.8	HTIPKSGPIVPYVL [YGR010W 26-39]
2840	HRLFKSTPGLPKLW [YAL048C 356-369]
204	HFNTKKIPELPSQF [YML051W 376-389]
89.6	IAGQRTFPEDPNYP [YKR051W 375-388]

Target: Sho1 SH3 (SHO1_YEAST), P40073
Sequence (P40073 295-366): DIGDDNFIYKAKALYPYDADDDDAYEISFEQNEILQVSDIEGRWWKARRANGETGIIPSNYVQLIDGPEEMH
Test: SPOT array

Binder	normalised SPOT signal, Boehringer light units (BLU); mean over the file's lines of this peptide
HLLGKEGPSAPNPS [YNL287W 476-489]	69.5
HELVKSDPHFPYGT [YDL117W 838-851]	11.7
HKFVKSSPVVPFDD [YOR335C 27-40]	53.1
HFPSRSQPSDPKLQ [YKR028W 906-919]	321
HISDKMNPASPQYF [YDR266C 250-263]	115
HILEKYSPFDPSGR [YPL148C 31-44]	89.5
HNAAKPIPHVPQAS [YKR067W 8-21]	82.1
HEVPKRSPEKPSNP [YNL278W 806-819]	64.4

The remaining lines, values ahead:

normalised SPOT signal, Boehringer light units (BLU); mean over the file's lines of this peptide	Binder
121	HLVRKVAPTKPMYS [YHR070W 477-490]
25.5	IAEWKNDPNNPNFE [YMR277W 194-207]
57900	HEREKALPPIPFTT [YLR425W 196-209]
21600	HSTPKPLPPVPALS [YNL106C 1030-1043]
42.1	HTIPKSGPIVPYVL [YGR010W 26-39]
642	HRLFKSTPGLPKLW [YAL048C 356-369]
1960	HFNTKKIPELPSQF [YML051W 376-389]
43.4	IAGQRTFPEDPNYP [YKR051W 375-388]

Target: T4, Boi2 SH3 (BOI2_YEAST), P39969
Test: SPOT array

Binder	normalised SPOT signal, Boehringer light units (BLU); mean over the file's lines of this peptide
HLLGKEGPSAPNPS [YNL287W 476-489]	22.1
HELVKSDPHFPYGT [YDL117W 838-851]	32.3
HKFVKSSPVVPFDD [YOR335C 27-40]	7.2
HFPSRSQPSDPKLQ [YKR028W 906-919]	17.7
HISDKMNPASPQYF [YDR266C 250-263]	18.2
HILEKYSPFDPSGR [YPL148C 31-44]	19.3
HNAAKPIPHVPQAS [YKR067W 8-21]	1.8
HEVPKRSPEKPSNP [YNL278W 806-819]	2.4

Second part, the binder after the results:

normalised SPOT signal, Boehringer light units (BLU); mean over the file's lines of this peptide	Binder
69.3	HLVRKVAPTKPMYS [YHR070W 477-490]
28.7	IAEWKNDPNNPNFE [YMR277W 194-207]
1.7	HEREKALPPIPFTT [YLR425W 196-209]
28.4	HSTPKPLPPVPALS [YNL106C 1030-1043]
33.2	HTIPKSGPIVPYVL [YGR010W 26-39]
123	HRLFKSTPGLPKLW [YAL048C 356-369]
35.7	HFNTKKIPELPSQF [YML051W 376-389]
0	IAGQRTFPEDPNYP [YKR051W 375-388]

Target: T5, Yhr016c SH3 (YSC84_YEAST), P32793
Test: SPOT array

Binder	normalised SPOT signal, Boehringer light units (BLU); mean over the file's lines of this peptide
HLLGKEGPSAPNPS [YNL287W 476-489]	39.7
HELVKSDPHFPYGT [YDL117W 838-851]	17
HKFVKSSPVVPFDD [YOR335C 27-40]	40.3
HFPSRSQPSDPKLQ [YKR028W 906-919]	32.6
HISDKMNPASPQYF [YDR266C 250-263]	27.4
HILEKYSPFDPSGR [YPL148C 31-44]	34.1
HNAAKPIPHVPQAS [YKR067W 8-21]	59.3
HEVPKRSPEKPSNP [YNL278W 806-819]	61.8

Continued, values first:

normalised SPOT signal, Boehringer light units (BLU); mean over the file's lines of this peptide	Binder
70.2	HLVRKVAPTKPMYS [YHR070W 477-490]
9.5	IAEWKNDPNNPNFE [YMR277W 194-207]
15.2	HEREKALPPIPFTT [YLR425W 196-209]
29.9	HSTPKPLPPVPALS [YNL106C 1030-1043]
18.7	HTIPKSGPIVPYVL [YGR010W 26-39]
96.9	HRLFKSTPGLPKLW [YAL048C 356-369]
4.9	HFNTKKIPELPSQF [YML051W 376-389]
16	IAGQRTFPEDPNYP [YKR051W 375-388]

Target: T6, Rvs167 SH3 (RV167_YEAST), P39743
Test: SPOT array

Binder	normalised SPOT signal, Boehringer light units (BLU); mean over the file's lines of this peptide
HLLGKEGPSAPNPS [YNL287W 476-489]	49.5
HELVKSDPHFPYGT [YDL117W 838-851]	29.9
HKFVKSSPVVPFDD [YOR335C 27-40]	153
HFPSRSQPSDPKLQ [YKR028W 906-919]	68.1
HISDKMNPASPQYF [YDR266C 250-263]	30.3
HILEKYSPFDPSGR [YPL148C 31-44]	15.9
HNAAKPIPHVPQAS [YKR067W 8-21]	20.6
HEVPKRSPEKPSNP [YNL278W 806-819]	46.4

Continued, values first:

normalised SPOT signal, Boehringer light units (BLU); mean over the file's lines of this peptide	Binder
252	HLVRKVAPTKPMYS [YHR070W 477-490]
20.5	IAEWKNDPNNPNFE [YMR277W 194-207]
42.8	HEREKALPPIPFTT [YLR425W 196-209]
94.4	HSTPKPLPPVPALS [YNL106C 1030-1043]
28.2	HTIPKSGPIVPYVL [YGR010W 26-39]
605	HRLFKSTPGLPKLW [YAL048C 356-369]
235	HFNTKKIPELPSQF [YML051W 376-389]
28.7	IAGQRTFPEDPNYP [YKR051W 375-388]
